The values that follow come from US20190134089A1 (GEORGIA STATE UNIVERSITY RESEARCH FOUNDATION, published 2019).

Sequences and labels used below:
B1: murine signal regulatory protein α (SIRPα) on macrophages (receptor, mouse, UniProt P97797 32-513, looked up)
chain: KELKVTQPEKSVSVAAGDSTVLNCTLTSLLPVGPIRWYRGVGPSRLLIYSFAGEYVPRIRNVSDTTKRNNMDFSIRISNVTPADAGIYYCVKFQKGSSEPDTEIQSGGGTEVYVLAKPSPPEVSGPADRGIPDQKVNFTCKSHGFSPRNITLKWFKDGQELHPLETTVNPSGKNVSYNISSTVRVVLNSMDVNSKVICEVAHITLDRSPLRGIANLSNFIRVSPTVKVTQQSPTSMNQVNLTCRAERFYPEDLQLIWLENGNVSRNDTPKNLTKNTDGTYNYTSLFLVNSSAHREDVVFTCQVKHDQQPAITRNHTVLGFAHSSDQGSMQTFPDNNATHNWNVFIGVGVACALLVVLLMAALYLLRIKQKKAKGSTSSTRLHEPEKNAREITQVQSLIQDTNDINDITYADLNLPKEKKPAPRAPEPNNHTEYASIETGKVPRPEDTLTYADLDMVHLSRAQPAPKPEPSFSEYASVQVQRK
notes: whole, on cells; Endogenous protein of WT mouse macrophages; In the co-immunoprecipitations it is tyrosine-phosphorylated in its cytoplasmic ITIMs (SIRPα pY); also called murine SIRPα; surface signal regulatory protein α

The target of assay [1] is T1, SHP-1 (SH2-containing tyrosine phosphatase) of mouse macrophages (mouse, UniProt P29351 1-595, limits assumed).
T1 construct: Detected by Western blot in SIRPα immunoprecipitates
Put plainly: SIRPα immunoprecipitation from LPS- or IL-17-treated WT PEM lysates, WB for SHP-1. How it is done: FIGS. 4A-4E include data related to our experiments on macrophage phagocytic plasticity. FIG. 4A is a panel of illustrative line graphs showing that IL-10 inhibits macrophage phagocytosis toward “self.” PEMs were treated with LPS and activating cytokines along with various concentrations of IL-10 before testing their ability to phagocytose RBCs. FIG. 4B illustrates the phagocytic plasticity of WT red pulp macrophages. […] Treatments of cultured macrophages with LPS and IL-17 re-elicited their phagocytosis toward RBCs. […] Error bars are ±SEM. ***P<0.001 vs. freshly isolated splenic macrophages. FIG. 4D includes microscopic images of RBC phagocytosis by LPS- and IL-17-treated splenic macrophages. […] WT PEMs treated with LPS or IL-17 were further treated with Cd47⁺ RBCs or Cd47-AP (10 min, 37° C.) followed by cell lysis, SIRPα immunoprecipitation, and WB detection of SIRPα phosphorylation (SIRPα^pY) and SHP-1 association. Data presented in each panel represent at least three independent experiments with n≥4, if applicable.

Assay [2] has as its target B1. Put plainly: note on the reagent used to ligate SIRPα on WT macrophages (FIG. 10).

T1 sequence (P29351 whole entry): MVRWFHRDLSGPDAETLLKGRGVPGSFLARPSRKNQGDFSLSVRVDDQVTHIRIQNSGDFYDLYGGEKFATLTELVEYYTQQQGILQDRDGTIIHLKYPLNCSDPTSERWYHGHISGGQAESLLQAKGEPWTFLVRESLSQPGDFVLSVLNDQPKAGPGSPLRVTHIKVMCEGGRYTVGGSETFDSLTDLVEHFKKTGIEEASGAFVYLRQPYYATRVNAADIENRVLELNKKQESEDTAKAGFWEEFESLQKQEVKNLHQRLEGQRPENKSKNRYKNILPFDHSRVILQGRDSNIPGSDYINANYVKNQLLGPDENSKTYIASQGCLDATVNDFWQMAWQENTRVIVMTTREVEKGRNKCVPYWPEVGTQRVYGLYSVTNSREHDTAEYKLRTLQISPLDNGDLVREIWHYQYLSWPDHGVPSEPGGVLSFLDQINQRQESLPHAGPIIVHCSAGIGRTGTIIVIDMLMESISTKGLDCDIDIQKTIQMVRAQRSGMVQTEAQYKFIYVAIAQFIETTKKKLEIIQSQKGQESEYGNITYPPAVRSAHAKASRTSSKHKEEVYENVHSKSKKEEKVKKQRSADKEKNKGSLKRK

For B1, the binding result in assay [1] is listed as “binds”.

B2: mCD47-AP, soluble murine CD47 extracellular domain fusion protein (other, mouse, UniProt Q61735 19-140, looked up, not shown: large carriers)
chain: QLLFSNVNSIEFTSCNETVVIPCIVRNVEAQSTEEMFVKWKLNKSYIFIYDGNKNSTTTDQNFTSAKISVSDLINGIASLKMDKRDAMVGNYTCEVTELSREGKTVIELKNRTVSWFSPNEK
notes: extracellular domain
For the molecule B2, in assay [2], the binding result is on record as “binds”.
